In the experiment the target is T1, His-D6PK (Arabidopsis thaliana, UniProt Q9FG74 1-498).
T1 sequence (looked up): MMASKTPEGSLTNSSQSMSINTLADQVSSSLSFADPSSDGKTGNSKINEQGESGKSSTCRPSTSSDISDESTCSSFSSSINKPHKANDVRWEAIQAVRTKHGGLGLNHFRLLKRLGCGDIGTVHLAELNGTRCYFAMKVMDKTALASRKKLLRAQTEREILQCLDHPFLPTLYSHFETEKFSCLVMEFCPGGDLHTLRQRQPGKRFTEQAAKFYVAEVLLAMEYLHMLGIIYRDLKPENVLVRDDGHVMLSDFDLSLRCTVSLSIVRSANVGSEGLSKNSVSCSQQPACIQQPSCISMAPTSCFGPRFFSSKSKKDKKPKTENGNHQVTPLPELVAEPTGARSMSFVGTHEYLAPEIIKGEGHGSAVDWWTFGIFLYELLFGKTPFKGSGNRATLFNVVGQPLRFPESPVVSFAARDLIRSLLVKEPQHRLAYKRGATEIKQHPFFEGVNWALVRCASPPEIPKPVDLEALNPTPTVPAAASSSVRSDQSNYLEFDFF
The experiment is described as follows: pull-down.

B1: GST-PDK1.1 (enzyme, Arabidopsis thaliana, UniProt Q9XF67 1-491, looked up)
chain: MLAMEKEFDSKLVLQGNSSNGANVSRSKSFSFKAPQENFTSHDFEFGKIYGVGSYSKVVRAKKKETGTVYALKIMDKKFITKENKTAYVKLERIVLDQLEHPGIIKLYFTFQDTSSLYMALESCEGGELFDQITRKGRLSEDEARFYTAEVVDALEYIHSMGLIHRDIKPENLLLTSDGHIKIADFGSVKPMQDSQITVLPNAASDDKACTFVGTAAYVPPEVLNSSPATFGNDLWALGCTLYQMLSGTSPFKDASEWLIFQRIIARDIKFPNHFSEAARDLIDRLLDTEPSRRPGAGSEGYVALKRHPFFNGVDWKNLRSQTPPKLAPDPASQTASPERDDTHGSPWNLTHIGDSLATQNEGHSAPPTSSESSGSITRLASIDSFDSRWQQFLEPGESVLMISAVKKLQKITSKKVQLILTNKPKLIYVDPSKLVVKGNIIWSDNSNDLNVVVTSPSHFKICTPKKVLSFEDAKQRASVWKKAIETLQNR
Consider B1, for which the binding result is “binds”.
